We go through one sequence from publication PMC8360651.

The data set concerns VHH 9E (humanized single-domain antibody) (synthetic humanized VHH library NaLi-H1). Description: ELISA. As to conditions: ELISA: biotinylated DNA on avidin plates, 2 h binding, PBS/PBST washes (competition mix at RT). EMSA: PBS, 10% glycerol, RT 2 h, 8% native PAGE in TAE at 4 C. …. (In general: ELISA stands for enzyme-linked immunosorbent assay.)

Where the note is “pH 5”, “AAAATACATTTATATATATCCTAGTCCGACCGCAGGATCCTATAA / TTATAGGATCCTGCGGTCGGACTAGGATATATATAAATGTA [41-mer dsDNA target (BIOTIN-R-CELL + O3-CELL)]” yielded a binding signal of 82%. This sequence showed a K half (serial dilutions of VHH on immobilized dsDNA, relative binding affinity) of 200 nM.
